Blank lines part the entries; values can stand above or below the binder they belong to. No end group written: not given here.
Legend:
[1] = target: T1, endogenous GC-A of HEK293 cells (human, UniProt P16066 33-1061); test: cell-based or functional assay
T1 sequence (looked up): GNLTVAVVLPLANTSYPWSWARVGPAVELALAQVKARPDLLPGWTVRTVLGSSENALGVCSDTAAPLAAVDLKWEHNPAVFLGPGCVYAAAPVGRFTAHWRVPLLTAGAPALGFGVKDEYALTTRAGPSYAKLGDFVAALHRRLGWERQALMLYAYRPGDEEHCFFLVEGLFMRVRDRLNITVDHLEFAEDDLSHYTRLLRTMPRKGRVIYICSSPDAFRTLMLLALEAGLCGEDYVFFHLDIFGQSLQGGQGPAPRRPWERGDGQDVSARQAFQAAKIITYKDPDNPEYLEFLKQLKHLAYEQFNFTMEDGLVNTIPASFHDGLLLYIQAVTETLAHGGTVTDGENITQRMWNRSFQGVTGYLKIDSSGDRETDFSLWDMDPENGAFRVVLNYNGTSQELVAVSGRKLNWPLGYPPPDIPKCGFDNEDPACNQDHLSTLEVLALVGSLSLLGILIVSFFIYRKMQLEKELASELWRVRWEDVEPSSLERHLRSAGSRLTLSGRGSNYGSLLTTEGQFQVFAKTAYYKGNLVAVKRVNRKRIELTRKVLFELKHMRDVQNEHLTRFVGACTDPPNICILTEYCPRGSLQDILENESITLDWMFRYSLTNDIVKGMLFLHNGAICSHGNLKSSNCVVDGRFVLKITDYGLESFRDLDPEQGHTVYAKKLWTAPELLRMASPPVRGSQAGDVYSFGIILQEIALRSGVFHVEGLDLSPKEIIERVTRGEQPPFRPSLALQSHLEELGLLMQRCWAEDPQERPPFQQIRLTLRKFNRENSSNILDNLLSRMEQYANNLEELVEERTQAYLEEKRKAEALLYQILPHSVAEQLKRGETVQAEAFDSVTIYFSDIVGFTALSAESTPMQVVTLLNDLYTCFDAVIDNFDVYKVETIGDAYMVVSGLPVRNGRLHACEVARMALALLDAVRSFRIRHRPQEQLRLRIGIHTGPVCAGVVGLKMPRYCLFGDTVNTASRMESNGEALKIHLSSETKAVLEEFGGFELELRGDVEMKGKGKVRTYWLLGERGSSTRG

[2] = target: T2, human NPR-C (natriuretic peptide receptor C, clearance receptor), overexpressed on HEK293 cells (human, UniProt P17342 27-541); test: cell-based or functional assay
T2 sequence (looked up): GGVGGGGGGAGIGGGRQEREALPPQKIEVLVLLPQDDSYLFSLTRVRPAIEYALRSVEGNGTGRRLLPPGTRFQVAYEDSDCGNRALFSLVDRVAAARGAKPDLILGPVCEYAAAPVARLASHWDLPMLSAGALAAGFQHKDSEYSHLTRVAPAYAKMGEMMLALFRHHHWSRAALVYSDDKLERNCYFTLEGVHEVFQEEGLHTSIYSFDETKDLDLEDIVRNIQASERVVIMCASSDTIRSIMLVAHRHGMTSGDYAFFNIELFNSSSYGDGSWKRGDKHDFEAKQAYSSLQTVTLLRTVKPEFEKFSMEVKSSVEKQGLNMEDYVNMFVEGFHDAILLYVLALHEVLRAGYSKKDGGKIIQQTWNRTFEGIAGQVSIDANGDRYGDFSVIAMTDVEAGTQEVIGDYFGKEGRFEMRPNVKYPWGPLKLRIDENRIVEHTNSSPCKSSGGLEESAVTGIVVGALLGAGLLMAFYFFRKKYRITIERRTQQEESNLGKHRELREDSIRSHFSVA

[3] = target: T2, human NPR-C (natriuretic peptide …); test: competition of ~30 nM PLAP-Ostn binding on NPR-C-transfected HEK293 cells
Method: To further validate the specificity and affinity of Ostn-NPR-C binding, competition experiments were conducted in NPR-C over-expressing cells. […] (SEQ ID NO: 71) lacking a part of NM2. […] (SEQ ID NO: 66) or Ostn[117-130] (SEQ ID NO: 71). […] (SEQ ID NO: 66) was able to compete off 50% of the binding of PLAP-mOstn in the ˜1-10 nM range, in contrast to Ostn[117-130] (SEQ ID NO: 71) that was unable to efficiently compete up to 100 nM (FIG. 7B).

[4] = target: T3, human GC-B, overexpressed on HEK293 cells (human, UniProt P20594 23-1047); test: PLAP activity bound to transiently transfected HEK293 cells
T3 construct: whole, on cells
T3 sequence (looked up): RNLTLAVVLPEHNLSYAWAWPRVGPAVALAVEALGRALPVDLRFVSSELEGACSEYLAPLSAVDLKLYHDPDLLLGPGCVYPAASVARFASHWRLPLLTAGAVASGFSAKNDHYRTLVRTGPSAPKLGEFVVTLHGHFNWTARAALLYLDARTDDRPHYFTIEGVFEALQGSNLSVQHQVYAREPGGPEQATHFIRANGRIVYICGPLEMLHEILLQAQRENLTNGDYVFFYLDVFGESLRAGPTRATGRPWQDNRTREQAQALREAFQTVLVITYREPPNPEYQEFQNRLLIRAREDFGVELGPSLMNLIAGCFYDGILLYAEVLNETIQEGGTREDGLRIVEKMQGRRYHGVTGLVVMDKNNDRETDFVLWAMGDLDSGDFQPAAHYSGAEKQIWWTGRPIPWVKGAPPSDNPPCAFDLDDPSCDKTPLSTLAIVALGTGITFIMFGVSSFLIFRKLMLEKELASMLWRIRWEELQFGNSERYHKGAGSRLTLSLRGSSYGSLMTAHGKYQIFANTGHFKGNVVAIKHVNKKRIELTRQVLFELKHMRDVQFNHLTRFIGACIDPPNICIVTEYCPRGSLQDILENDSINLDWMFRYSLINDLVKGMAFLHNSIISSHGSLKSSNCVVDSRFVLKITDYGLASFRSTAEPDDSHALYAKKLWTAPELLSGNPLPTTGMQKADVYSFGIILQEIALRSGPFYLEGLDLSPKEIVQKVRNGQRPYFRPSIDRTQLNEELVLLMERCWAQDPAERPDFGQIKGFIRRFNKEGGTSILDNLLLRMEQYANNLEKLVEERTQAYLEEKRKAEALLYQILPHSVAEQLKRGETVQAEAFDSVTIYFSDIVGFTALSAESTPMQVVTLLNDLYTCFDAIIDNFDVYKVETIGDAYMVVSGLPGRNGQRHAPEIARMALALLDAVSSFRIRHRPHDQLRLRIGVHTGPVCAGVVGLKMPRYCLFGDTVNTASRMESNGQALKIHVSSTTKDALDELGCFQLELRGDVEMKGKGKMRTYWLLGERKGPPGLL
From the text: (§1) To analyze the potential binding of Ostn to natriuretic receptors, a fusion protein (PLAP-Ostn) (FIG. 6) was generated as described above. This fusion protein comprised an N-terminal secreted placental alkaline phosphatase (PLAP) moiety linked to mature mouse Ostn (residues 29-130) (SEQ ID NO: 62). Conditioned media containing PLAP-mOstn was used to assess Ostn binding on transiently transfected cells.

[5] = target: T4, rat GC-A, overexpressed on HEK293 cells (rat, UniProt P18910 29-1057); test: as above
T4 construct: whole, on cells
T4 sequence (looked up): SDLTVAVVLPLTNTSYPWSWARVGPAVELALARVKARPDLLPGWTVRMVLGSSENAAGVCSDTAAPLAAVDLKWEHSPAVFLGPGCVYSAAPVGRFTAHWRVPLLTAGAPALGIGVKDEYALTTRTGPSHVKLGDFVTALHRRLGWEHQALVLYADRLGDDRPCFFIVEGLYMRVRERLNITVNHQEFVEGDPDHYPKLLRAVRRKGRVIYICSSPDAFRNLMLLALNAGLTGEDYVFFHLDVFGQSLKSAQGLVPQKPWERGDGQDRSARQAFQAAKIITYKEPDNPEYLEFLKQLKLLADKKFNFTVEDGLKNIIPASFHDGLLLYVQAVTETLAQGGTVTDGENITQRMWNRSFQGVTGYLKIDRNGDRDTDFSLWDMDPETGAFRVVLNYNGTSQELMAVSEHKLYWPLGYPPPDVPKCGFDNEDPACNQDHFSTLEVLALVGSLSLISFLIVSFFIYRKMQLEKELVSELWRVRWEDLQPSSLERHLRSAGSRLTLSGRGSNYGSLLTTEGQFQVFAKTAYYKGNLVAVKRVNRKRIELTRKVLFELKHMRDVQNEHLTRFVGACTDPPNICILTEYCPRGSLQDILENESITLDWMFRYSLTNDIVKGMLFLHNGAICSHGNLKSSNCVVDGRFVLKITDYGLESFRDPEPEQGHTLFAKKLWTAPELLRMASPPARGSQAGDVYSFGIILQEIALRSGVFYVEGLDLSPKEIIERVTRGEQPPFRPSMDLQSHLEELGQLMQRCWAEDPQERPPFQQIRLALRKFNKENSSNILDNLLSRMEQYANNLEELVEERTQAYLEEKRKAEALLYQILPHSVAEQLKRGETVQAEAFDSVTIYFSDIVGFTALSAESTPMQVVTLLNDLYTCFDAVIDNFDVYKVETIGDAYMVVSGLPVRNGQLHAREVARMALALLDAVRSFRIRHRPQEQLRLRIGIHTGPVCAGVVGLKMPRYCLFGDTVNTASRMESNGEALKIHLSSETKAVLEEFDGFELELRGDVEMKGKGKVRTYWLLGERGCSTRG
From the text: as §1

[6] = target: T2, human NPR-C (natriuretic peptide …); test: PLAP activity bound to NPR-C-transfected HEK293 cells, saturation binding
From the text: as §1

[7] = target: T5, NPR-C on ATDC5 cells (mouse chondrogenic cell line) (mouse, UniProt P70180 41-536); test: displacement of 125I-Ostn[83-133] from ATDC5 cells
T5 construct: whole, on cells; also called ATDC5 cells surface
T5 sequence (looked up): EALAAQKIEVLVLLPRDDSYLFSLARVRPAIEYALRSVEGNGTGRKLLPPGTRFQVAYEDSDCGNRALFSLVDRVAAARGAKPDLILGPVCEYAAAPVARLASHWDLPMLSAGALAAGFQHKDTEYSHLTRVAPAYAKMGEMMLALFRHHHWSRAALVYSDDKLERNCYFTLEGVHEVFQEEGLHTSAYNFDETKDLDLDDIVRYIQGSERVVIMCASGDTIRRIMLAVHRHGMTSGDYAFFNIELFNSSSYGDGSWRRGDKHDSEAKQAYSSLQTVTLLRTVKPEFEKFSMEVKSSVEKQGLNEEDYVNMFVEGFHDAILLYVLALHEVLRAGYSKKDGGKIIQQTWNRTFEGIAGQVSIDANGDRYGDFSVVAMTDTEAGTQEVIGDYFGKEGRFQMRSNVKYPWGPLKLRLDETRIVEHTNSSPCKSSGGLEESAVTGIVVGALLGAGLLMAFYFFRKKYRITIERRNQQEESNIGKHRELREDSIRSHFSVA
Method: (SEQ ID NO: 41) for 90 min at 4° C. After incubation, cells were washed twice with ice-cold PBS and solubilized with 0.5-ml of 0.5 M NaOH.
The radioactivity was measured with gamma-counter (Wallac). […] (SEQ ID NO: 41) and the IC₅₀ calculated was 4.7 nM. […] (SEQ ID NO: 41) (FIG. 12b).

Binder: YDHSKKRFGIPMDRIGRNRLSNSR-NH2 [mouse amidated Ostn[107-129] synthetic C-terminal peptide]
cGMP levels of NPR-C-expressing HEK293 cells with 0.1 nM ANP and 10 nM Ostn[107-129] [2]: 4 fold
IC50 [3]: 1 to 10 nM

B2: human Ostn[83-133] (cold) (peptide)
peptide: SFSGFGSPLDRLSAGSVDHKGKQRKVVDHPKRRFGIPMDRIGRNRLSNSRG
notes: Bought from Phoenix Pharmaceutical co
IC50 [7]: 4.7 nM

More lines, now with the values ahead:

increase in cGMP levels upon ANP stimulation of GFP-transfected HEK293 cells [1]: 9 fold
increase in cGMP levels upon stimulation of NPR-C-overexpressing HEK293 cells with 0.1 nM ANP[1-28] [2]: 1.5 fold
Binder: SLRRSSCFGGRIDRIGAQSGLGCNSFRY (ligand, ends and bridges not checked; cysteine pairing not given here) [Rat ANP (1-28)]

binding result [4]: no binding
binding result [5]: no binding
EC50 [6]: ~30 nM
B1: PLAP-Ostn fusion protein (N-terminal secreted placental alkaline phosphatase moiety linked to mouse Ostn[29-130]) (other)
chain: DAAQPARRARRTYEAYVRSSGIIPVEEENPDFWNREAAEALGAAKKLQPAQTAAKNLIIFLGDGMGVSTVTAARILKGQKKDKLGPEIPLAMDRFPYVALSKTYNVDKHVPDSGATATAYLCGVKGNFQTIGLSAAARFNQCNTTRGNEVISVMNRAKKAGKSVGVVTTTRVQHASPAGTYAHTVNRNWYSDADVPASARQEGCQDIATQLISNMDIDVILGGGRKYMFPMGTPDPEYPDDYSQGGTRLDGKNLVQEWLAKRQGARYVWNRTELMQASLDPSVTHLMGLFEPGDMKYEIHRDSTLDPSLMEMTEAALRLLSRNPRGFFLFVEGGRIDHGHHESRAYRALTETIMFDDAIERAGQLTSEEDTLSLVTADHSHVFSFGGYPLRGSSIFGLAPGKARDRKAYTVLLYGNGPGYVLKDGARPDVTESESGSPEYRQQSAVPLDEETHAGEDVAVFARGPQAHLVHGVQEQTFIAHVMAFAACLEPYTACDLAPPAGTTDAAHPGYLDLASQEFGTASLQSPPTAREEKSATELSAKLLRLDDLVSLENDVFETKKKRSFSGFGSPLDRLSAGSVEHRGKQRKAVDHSKKRFGIPMDRIGRNRLSSSRG
notes: Used as conditioned medium of transfected HEK293 cells; also called PLAP-mOstn
